Data published in publication PMC4767637.

Biological target: STAT3 (127-711)-His6 I568F (HIES mutant) (human) (UniProt P40763)
Experiment: ITC

STAT3 (127-711)-His6 I568F (HIES mutant) (human), sequence (P40763 127-711 I568F): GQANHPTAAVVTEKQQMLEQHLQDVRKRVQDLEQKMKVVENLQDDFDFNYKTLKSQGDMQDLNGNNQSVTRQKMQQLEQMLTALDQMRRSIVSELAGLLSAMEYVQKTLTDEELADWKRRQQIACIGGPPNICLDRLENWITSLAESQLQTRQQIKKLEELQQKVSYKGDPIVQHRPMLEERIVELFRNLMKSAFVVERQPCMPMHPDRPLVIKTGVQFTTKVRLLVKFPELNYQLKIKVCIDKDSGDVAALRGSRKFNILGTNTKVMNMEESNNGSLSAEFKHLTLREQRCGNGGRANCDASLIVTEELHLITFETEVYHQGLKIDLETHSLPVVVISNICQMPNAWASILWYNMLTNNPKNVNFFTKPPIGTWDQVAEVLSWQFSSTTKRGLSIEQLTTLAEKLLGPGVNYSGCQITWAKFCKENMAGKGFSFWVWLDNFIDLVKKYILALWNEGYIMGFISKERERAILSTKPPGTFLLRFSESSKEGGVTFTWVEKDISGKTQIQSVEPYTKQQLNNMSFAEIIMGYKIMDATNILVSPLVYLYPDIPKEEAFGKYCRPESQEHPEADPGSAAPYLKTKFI

fold reduction in binding affinity against WT STAT3: 5 fold
Substance: phosphotyrosine peptide derived from gp130 (pY904)
